This note sets out measurements from patent US20020164609A1 (SCHERING, published 2002).

Test [1] addresses T1, Flag-tagged human WSX-1/TCCR on Ba/F3 cells (F-hWSX-1) (human, UniProt Q6UWB1 33-636).
T1 construct: Retroviral pMX construct expressed on the surface of Ba/F3 cells; also called hNR30; F-tagged WSX-1/TCCR
T1 sequence: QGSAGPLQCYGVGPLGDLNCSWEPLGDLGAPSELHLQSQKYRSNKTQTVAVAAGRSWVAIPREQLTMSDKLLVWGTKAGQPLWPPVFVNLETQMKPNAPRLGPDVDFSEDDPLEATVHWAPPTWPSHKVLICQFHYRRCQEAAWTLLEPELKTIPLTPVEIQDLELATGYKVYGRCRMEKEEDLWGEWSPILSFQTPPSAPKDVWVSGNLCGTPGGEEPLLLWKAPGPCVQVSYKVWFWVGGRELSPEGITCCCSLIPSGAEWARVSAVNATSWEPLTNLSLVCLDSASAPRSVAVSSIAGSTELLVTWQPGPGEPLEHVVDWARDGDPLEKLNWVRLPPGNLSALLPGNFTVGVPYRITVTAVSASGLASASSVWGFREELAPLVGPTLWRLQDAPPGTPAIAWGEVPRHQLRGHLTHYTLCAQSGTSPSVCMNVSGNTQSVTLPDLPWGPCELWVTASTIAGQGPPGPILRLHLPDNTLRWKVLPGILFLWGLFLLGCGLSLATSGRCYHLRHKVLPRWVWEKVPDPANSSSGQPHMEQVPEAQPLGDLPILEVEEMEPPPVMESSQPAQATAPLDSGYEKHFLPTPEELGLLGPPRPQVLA
The test is described as follows: flow cytometry on BaF3 cells expressing F-hWSX-1, two hours incubation. (A flow cytometer gives signals particle by particle.)

Test [2] deals with T2, soluble human WSX-1/TCCR with C-terminal RGSH6 tag (shWSX-1-R) (human, UniProt Q6UWB1 33-516).
T2 construct: Produced in HEK293T supernatants; also called shNR30R; soluble hWSX-1-R
T2 sequence: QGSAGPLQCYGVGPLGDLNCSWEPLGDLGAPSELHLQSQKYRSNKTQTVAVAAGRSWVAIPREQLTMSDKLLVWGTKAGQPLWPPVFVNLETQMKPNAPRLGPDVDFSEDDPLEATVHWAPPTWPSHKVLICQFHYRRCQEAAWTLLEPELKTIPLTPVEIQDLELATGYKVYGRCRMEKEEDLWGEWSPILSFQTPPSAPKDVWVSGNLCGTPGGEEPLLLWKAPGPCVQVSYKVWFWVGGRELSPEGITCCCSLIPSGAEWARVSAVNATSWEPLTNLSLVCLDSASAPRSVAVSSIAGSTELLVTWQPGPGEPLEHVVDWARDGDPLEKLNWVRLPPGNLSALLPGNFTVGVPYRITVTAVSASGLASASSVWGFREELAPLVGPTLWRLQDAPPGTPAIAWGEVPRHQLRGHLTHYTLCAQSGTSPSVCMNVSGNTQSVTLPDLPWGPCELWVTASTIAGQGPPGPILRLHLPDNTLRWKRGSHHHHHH
The test is described as follows: co-immunoprecipitation and western blot; F-hEBI3 alone against shWSX-1-R supernatant. The procedure: The primary pricipitates were washed and then incubated with HEK293T cell supernatants containing shWSX-1-R. Secondary precipitates were separated by SDS-PAGE and subjected to western blot. Precipitaited proteins were visualized by ECL using antibodies against the respective protein tags.
For orientation: In western blotting, separated proteins are transferred to a membrane and probed.

Test [3] has as its target T3, Flag-tagged mouse WSX-1 on BaF3 cells (F-mWSX-1) (mouse, UniProt O70394 25-623).
T3 construct: whole, on cells; Retroviral pMX construct expressed on the surface of Ba/F3 cells
T3 sequence (looked up): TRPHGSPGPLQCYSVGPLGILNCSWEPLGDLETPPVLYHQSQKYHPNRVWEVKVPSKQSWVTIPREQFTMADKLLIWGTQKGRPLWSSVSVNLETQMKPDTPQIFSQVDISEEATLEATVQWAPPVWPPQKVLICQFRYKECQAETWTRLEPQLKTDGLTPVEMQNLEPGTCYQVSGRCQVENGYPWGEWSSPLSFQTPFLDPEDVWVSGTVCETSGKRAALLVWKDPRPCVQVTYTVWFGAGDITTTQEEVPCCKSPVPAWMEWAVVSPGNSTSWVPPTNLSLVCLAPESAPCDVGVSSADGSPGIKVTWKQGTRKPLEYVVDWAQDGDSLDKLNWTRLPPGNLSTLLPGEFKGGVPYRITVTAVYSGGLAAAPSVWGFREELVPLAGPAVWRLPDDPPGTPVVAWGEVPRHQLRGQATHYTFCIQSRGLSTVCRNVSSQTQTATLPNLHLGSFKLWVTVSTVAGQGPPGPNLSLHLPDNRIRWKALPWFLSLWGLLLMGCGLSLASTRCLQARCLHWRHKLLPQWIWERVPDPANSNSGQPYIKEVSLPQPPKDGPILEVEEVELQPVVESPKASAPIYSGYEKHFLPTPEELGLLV
The test is described as follows: flow cytometry on mWSX-1-expressing BaF3 cells.

B1: human EBI3-Ig fusion (hEBI3-Ig) (Fc fusion)
chain: RKGPPAALTLPRVQCRASRYPIAVDCSWTLPPAPNSTSPVSFIATYRLGMAARGHSWPCLQQTPTSTSCTITDVQLFSMAPYVLNVTAVHPWGSSSSFVPFITEHIIKPDPPEGVRLSPLAERHVQVQWEPPGSWPFPEIFSLKYWIRYKRQGAARFHRVGPIEATSFILRAVRPRARYYVQVAAQDLTDYGELSDWSLPATATMSLGK
notes: Secreted fusion protein; also called EB133-Ig (so in the source); not shown: Ig part from the pME18S-Ig vector
Consider B1, for which the binding result in test [1] was “no binding”.

B2: Flag-tagged human EBI3 (F-hEBI3) (other)
chain: RKGPPAALTLPRVQCRASRYPIAVDCSWTLPPAPNSTSPVSFIATYRLGMAARGHSWPCLQQTPTSTSCTITDVQLFSMAPYVLNVTAVHPWGSSSSFVPFITEHIIKPDPPEGVRLSPLAERHVQVQWEPPGSWPFPEIFSLKYWIRYKRQGAARFHRVGPIEATSFILRAVRPRARYYVQVAAQDLTDYGELSDWSLPATATMSLGK
notes: Mature portion of human EBI3 cloned into pFlagCMV-1, produced in HEK293T cells; also called human Epstein-Barr virus-induced gene 3; not shown: N-terminal Flag tag from pFlagCMV-1
As to B2, the binding result in test [2] is on record as “no binding”.

B3: E-tagged mouse IL-D80 (mIL-D80-E) (ligand)
chain: FPTDPLSLQELRREFTVSLYLARKLLSEVQGYVHSFAESRLPGVNLDLLPLGYHLPNVSLTFQAWHHLSDSERLCFLATTLRPFPAMLGGLGTQGTWTSSEREQLWAMRLDLRDLHRHLRFQVLAAGFKCSKEEEDKEEEEEEEEEEKKLPLGALGGPNQVSSQVSWPQLLYTYQLLHSLELVLSRAVRDLLLLSLPRRPGSAWDS
notes: also called mp28-E; mouse p28; not shown: E-tag from the pCDM8-etag vector
For B3, the binding result in test [3] is reported as “no binding”.

B4: mouse EBI3-Ig fusion (mEBI3-Ig) (Fc fusion, UniProt O35228 19-228, looked up)
chain: YTETALVALSQPRVQCHASRYPVAVDCSWTPLQAPNSTRSTSFIATYRLGVATQQQSQPCLQRSPQASRCTIPDVHLFSTVPYMLNVTAVHPGGASSSLLAFVAERIIKPDPPEGVRLRTAGQRLQVLWHPPASWPFPDIFSLKYRLRYRRRGASHFRQVGPIEATTFTLRNSKPHAKYCIQVSAQDLTDYGKPSDWSLPGQVESAPHKP
notes: mature; Secreted fusion protein; not shown: Ig part from the pME18S-Ig vector
For the molecule B4, the binding result in test [3] is given as “no binding”.
